B1: hPLD1a: human phospholipase D1a, approximately 1074 amino acid protein, SEQ ID NO:2 (protein, listed as Homo sapiens)
chain: MSLKNEPRVNTSALQKIAADMSNIIENLDTRELHFEGEEVDYDVSPSDPKIQEVYIPFSAIYNTQGFKEPNIQTYLSGCPIKAQVLEVERFTSTTRVPSINLYTIELTHGEFKWQVKRKFKHFQEFHRELLKYKAFIRIPIPTRRHTFRRQNVREEPREMPSLPRSSENMIREEQFLGRRKQLEDYLTKILKMPMYRNYHATTEFLDISQLSFIHDLGPKGIEGMIMKRSGGHRIPGLNCCGQGRACYRWSKRWLIVKDSFLLYMKPDSGAIAFVLLVDKEFKIKVGKKETETKYGIRIDNLSRTLILKCNSYRHARWWGGAIEEFIQKHGTNFLKDHRFGSYAAIQENALAKWYVNAKGYFEDVANAMEEANEEIFITDWWLSPEIFLKRPVVEGNRWRLDCILKRKAQQGVRIFIMLYKEVELALGINSEYTKRTLMRLHPNIKVMRHPDHVSSTVYLWAHHEKLVIIDQSVAFVGGIDLAYGRWDDNEHRLTDVGSVKRVTSGPSLGSLPPAAMESMESLRLKDKNEPVQNLPIQKSIDDVDSKLKGIGKPRKFSKFSLYKQLHRHHLHDADSISSIDSTSSYFNHYRSHHNLIHGLKPHFKLFHPSSESEQGLTRPHADTGSIRSLQTGVGELHGETRFWHGKDYCNFVFKDWVQLDKPFADFIDRYSTPRMPWHDIASAVHGKAARDVARHFIQRWNFTKIMKSKYRSLSYPFLLPKSQTTAHELRYQVPGSVHANVQLLRSAADWSAGIKYHEESIHAAYVHVIENSRHYIYIENQFFISCADDKVVFNKIGDAIAQRILKAHRENQKYRVYVVIPLLPGFEGDISTGGGNALQAIMHFNYRTMCRGENSILGQLKAELGNQWINYISFCGLRTHAELEGNLVTELIYVHSKLLIADDNTVIIGSANINDRSMLGKRDSEMAVIVQDTETVPSVMDGKEYQAGRFARGLRLQCFRVVLGYLDDPSEDIQDPVSDKFFKEVWVSTAARNATIYDKVFRCLPNDEVHNLIQLRDFINKPVLAKEDPIRAEEELKKIRGFLVQFPFYFLSEESLLPSVGTKEAIVPMEVWT
B2: PLD1: purified recombinant mammalian PLD1 (SEQ ID NOS:2 or 5), a/b form not specified (protein, UniProt Q13393 1-1074, looked up)
Phospholipase D1: MSLKNEPRVNTSALQKIAADMSNIIENLDTRELHFEGEEVDYDVSPSDPKIQEVYIPFSAIYNTQGFKEPNIQTYLSGCPIKAQVLEVERFTSTTRVPSINLYTIELTHGEFKWQVKRKFKHFQEFHRELLKYKAFIRIPIPTRRHTFRRQNVREEPREMPSLPRSSENMIREEQFLGRRKQLEDYLTKILKMPMYRNYHATTEFLDISQLSFIHDLGPKGIEGMIMKRSGGHRIPGLNCCGQGRACYRWSKRWLIVKDSFLLYMKPDSGAIAFVLLVDKEFKIKVGKKETETKYGIRIDNLSRTLILKCNSYRHARWWGGAIEEFIQKHGTNFLKDHRFGSYAAIQENALAKWYVNAKGYFEDVANAMEEANEEIFITDWWLSPEIFLKRPVVEGNRWRLDCILKRKAQQGVRIFIMLYKEVELALGINSEYTKRTLMRLHPNIKVMRHPDHVSSTVYLWAHHEKLVIIDQSVAFVGGIDLAYGRWDDNEHRLTDVGSVKRVTSGPSLGSLPPAAMESMESLRLKDKNEPVQNLPIQKSIDDVDSKLKGIGKPRKFSKFSLYKQLHRHHLHDADSISSIDSTSSYFNHYRSHHNLIHGLKPHFKLFHPSSESEQGLTRPHADTGSIRSLQTGVGELHGETRFWHGKDYCNFVFKDWVQLDKPFADFIDRYSTPRMPWHDIASAVHGKAARDVARHFIQRWNFTKIMKSKYRSLSYPFLLPKSQTTAHELRYQVPGSVHANVQLLRSAADWSAGIKYHEESIHAAYVHVIENSRHYIYIENQFFISCADDKVVFNKIGDAIAQRILKAHRENQKYRVYVVIPLLPGFEGDISTGGGNALQAIMHFNYRTMCRGENSILGQLKAELGNQWINYISFCGLRTHAELEGNLVTELIYVHSKLLIADDNTVIIGSANINDRSMLGKRDSEMAVIVQDTETVPSVMDGKEYQAGRFARGLRLQCFRVVLGYLDDPSEDIQDPVSDKFFKEVWVSTAARNATIYDKVFRCLPNDEVHNLIQLRDFINKPVLAKEDPIRAEEELKKIRGFLVQFPFYFLSEESLLPSVGTKEAIVPMEVWT
B3: hPLD1b: human phospholipase D1b splice variant, approximately 1036 amino acid protein, SEQ ID NO:5 (protein, listed as Homo sapiens)
chain: MSLKNEPRVNTSALQKIAADMSNIIENLDTRELHFEGEEVDYDVSPSDPKIQEVYIPFSAIYNTQGFKEPNIQTYLSGCPIKAQVLEVERFTSTTRVPSINLYTIELTHGEFKWQVKRKFKHFQEFHRELLKYKAFIRIPIPTRRHTFRRQNVREEPREMPSLPRSSENMIREEQFLGRRKQLEDYLTKILKMPMYRNYHATTEFLDISQLSFIHDLGPKGIEGMIMKRSGGHRIPGLNCCGQGRACYRWSKRWLIVKDSFLLYMKPDSGAIAFVLLVDKEFKIKVGKKETETKYGIRIDNLSRTLILKCNSYRHARWWGGAIEEFIQKHGTNFLKDHRFGSYAAIQENALAKWYVNAKGYFEDVANAMEEANEEIFITDWWLSPEIFLKRPVVEGNRWRLDCILKRKAQQGVRIFIMLYKEVELALGINSEYTKRTLMRLHPNIKVMRHPDHVSSTVYLWAHHEKLVIIDQSVAFVGGIDLAYGRWDDNEHRLTDVGSVKRVTSGPSLGSLPPAAMESMESLRLKDKNEPVQNLPIQKSIDDVDSKLKGIGKPRKFSKFSLYKQLHRHHLHDADSISSIDSTSNTGSIRSLQTGVGELHGETRFWHGKDYCNFVFKDWVQLDKPFADFIDRYSTPRMPWHDIASAVHGKAARDVARHFIQRWNFTKIMKSKYRSLSYPFLLPKSQTTAHELRYQVPGSVHANVQLLRSAADWSAGIKYHEESIHAAYVHVIENSRHYIYIENQFFISCADDKVVFNKIGDAIAQRILKAHRENQKYRVYVVIPLLPGFEGDISTGGGNALQAIMHFNYRTMCRGENSILGQLKAELGNQWINYISFCGLRTHAELEGNLVTELIYVHSKLLIADDNTVIIGSANINDRSMLGKRDSEMAVIVQDTETVPSVMDGKEYQAGRFARGLRLQCFRVVLGYLDDPSEDIQDPVSDKFFKEVWVSTAARNATIYDKVFRCLPNDEVHNLIQLRDFINKPVLAKEDPIRAEEELKKIRGFLVQFPFYFLSEESLLPSVGTKEAIVPMEVWT

Assays:
[1] = standard headgroup release assay, fractions of hPLD1a baculovirus-infected Sf9 cells; format: biochemical; details: Sf9 cells infected 48 hours
Description: To determine the activity encoded by recombinant hPLD1a, control and hPLD1a-encoding baculovirus-infected Sf9 cells were assessed using a standard headgroup release assay that measures the amount of tritiated headgroup (e.g. [^3H]choline) liberated by hydrolysis of the labeled substrate [^3H]PC. The assay procedure measures release of the choline headgroup from the radiolabeled PC and is based on a protocol previously described in Brown, Cell 75:1137-44 (1993). Using standard separation techniques, cytosolic and membrane fractions were prepared from uninfected Sf9 cells or Sf9 cells infected for 48 hours with the hPLD1 expressing baculovirus vector. Sf9 cells infected with native baculovirus vector or PLC-expressing baculovirus vector yielded modest PLD activity levels similar to untransfected cells.

[2] = substrate specificity and transphosphatidylation assay of hPLD1a; format: biochemical
Description: Samples of the reaction products were applied to a 1 ml HPLC column of Source 15S resin (Pharmacia Biotech Inc.) and washed with 10 ml of H2O and eluted with a 30 ml linear gradient of 0-1 M CH3COONH4 in water at a flow rate of 1 ml/min. 1 ml fractions were collected and their radioactivity determined by liquid scintillation counting. Compounds were identified by reference to authentic standards. For analysis of phospholipid products, the vescicles were of standard composition except that approximately 10-20×10^3 dpm of [^32P]PC, [^32P]PE or [^32P]PI (specific radioactivity 10,000 dpm/nmol) was substituted for the [^3H]PC. Incubations were exactly as described except that transphosphatidylation assay contained 2% v/v EtOH. The assays were terminated by addition of 232 l of 1:1 CHCl2, MeOH. After mixing and centrifugation, the lower phases were removed, dried under vacuum, and analyzed by TLC on oxalate-impregnated Whatman 60A silica gel plates in a solvent system of CHCl2, MeOH:acetic acid (13:3:1, v/v). […]
To assess hPLD1a's substrate specificity, the standard PLD assay was carried out using [^32P]PE and [^32P]PI following the method as describe in Brown, Cell 75: 1137-44 (1993). […] To determine whether hPLD1a was capable of transphosphatidylase activity, EtOH was added to the reaction mixture and the products analyzed by thin layer chromatography. […]

HL-60 cells = assay: RT-PCR quantification of hPLD1a and hPLD1b during dbcAMP-induced HL-60 cell differentiation; format: cell-based, human; details: 0.5 mM dbcAMP; for increase in level (printed as activity) on day 1: day 1, RT-PCR; for increase in level (printed as activity) on day 2: day 2, RT-PCR; for increase in level (printed as activity) on day 3: day 3, RT-PCR
Description: To analyze changes in the levels of hPLD1 a and hPLD1b during HL-60 cell differentiation induced by dcbAMP, HL-60 cells maintained in RPMI-1640 medium supplemented with 10% fetal bovine serum, 100 units/ml penicillin and 100 µg/ml streptomycin in a humidified atmosphere containing 5% CO2, at 37 C. were grown in RPMI-1640 medium without fetal bovine serum for 24 hours. Differentiation was initiated by the addition of 0.5 mM dbcAMP. Levels of PLD1a and PLD1b were quantified by RT-PCR. Total RNA was isolated from the HL-60 cells at the exponential growth stage by the acid guanidine thiocyanate method following the protocol of Chomczynski, Anal. Biochem. 162: 156-62(1992). Two g of RNA was reverse transcribed by using random hexamer mixed primers. The number of amplification cycles were determined to individual primer sets in order to maintain exponential rate of product amplification. Amplified DNA fragments were subjected to electrophoresis on 1.5% agarose gel and visualized by ethidium bromide staining. The intensity of bands was quantified by a densitometer (Atto Densitograph, Tokyo, Japan). Primer A (Forward): nucleotides 1475 through 1491; primer B (reverse) nucleotides 2133 through 2113 of SEQ ID NO: 1. Amplification conditions used were 94 C. for 30 seconds, 60 C. for 1 minute, and 72 C. for 1 minute; 25-27 cycles.

Molecule | cytosolic PLD activity above control ([1]; cytosolic fraction) [fold] | membrane-associated PLD activity above control ([1]; membrane fraction) [fold] | transphosphatidylase activity ([2]; EtOH added, [^32P]PC, TLC) | hydrolysis of PE or PI ([2]; [^32P]PE and [^32P]PI as substrates) | increase in level (printed as activity) on day 1 (HL-60 cells) | increase in level (printed as activity) on day 2 (HL-60 cells) | increase in level (printed as activity) on day 3 (HL-60 cells) | increase over the 3 day differentiation period (HL-60 cells; 3 days, RT-PCR)
B1 | 32 | 15 | catalyzes the formation of [^32P]phosphatidylethanol | unable to hydrolyze PE or PI | approximately 3 fold | approximately 4 fold | less than 4 fold | 
B2 |  |  |  |  |  |  |  | 3-4 fold
B3 |  |  |  |  | less than 2 fold | approximately 3 fold | approximately 3.5 fold | 

Source: patent US6379665B1, “Phospholipase D polypeptide and DNA sequences” (Onyx Pharmaceuticals, Inc., priority 1996, dated 2002)
